Data as given in US20240254239A1 (LAEKNA THERAPEUTICS SHANGHAI, published 2024).

T1: human CD248 ECD (human, UniProt Q9HCU0 18-687)
T1 construct: extracellular domain; also called recombinant extracellular domain of CD248
T1 sequence (looked up): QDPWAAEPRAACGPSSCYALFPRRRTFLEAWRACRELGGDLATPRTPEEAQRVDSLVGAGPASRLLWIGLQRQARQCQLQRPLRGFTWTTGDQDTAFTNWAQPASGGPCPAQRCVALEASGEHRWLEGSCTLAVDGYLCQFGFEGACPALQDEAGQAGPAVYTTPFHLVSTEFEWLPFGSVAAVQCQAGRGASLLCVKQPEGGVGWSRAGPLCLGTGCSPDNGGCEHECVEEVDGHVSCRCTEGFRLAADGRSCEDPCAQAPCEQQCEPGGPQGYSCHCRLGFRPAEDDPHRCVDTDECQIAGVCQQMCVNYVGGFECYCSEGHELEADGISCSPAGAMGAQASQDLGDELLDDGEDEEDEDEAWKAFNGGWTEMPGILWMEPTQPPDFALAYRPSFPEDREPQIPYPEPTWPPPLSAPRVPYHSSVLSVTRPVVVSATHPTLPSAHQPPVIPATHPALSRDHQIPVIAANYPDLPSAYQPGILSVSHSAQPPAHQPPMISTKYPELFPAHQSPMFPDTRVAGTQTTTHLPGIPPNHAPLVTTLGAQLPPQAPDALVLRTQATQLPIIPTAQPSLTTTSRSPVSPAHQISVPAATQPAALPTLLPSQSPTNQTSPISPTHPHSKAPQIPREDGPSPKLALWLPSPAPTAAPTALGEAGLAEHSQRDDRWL

T2: human FAPa ECD (human, UniProt Q12884 26-760)
T2 construct: extracellular domain; also called recombinant extracellular domain of FAPα
T2 sequence (looked up): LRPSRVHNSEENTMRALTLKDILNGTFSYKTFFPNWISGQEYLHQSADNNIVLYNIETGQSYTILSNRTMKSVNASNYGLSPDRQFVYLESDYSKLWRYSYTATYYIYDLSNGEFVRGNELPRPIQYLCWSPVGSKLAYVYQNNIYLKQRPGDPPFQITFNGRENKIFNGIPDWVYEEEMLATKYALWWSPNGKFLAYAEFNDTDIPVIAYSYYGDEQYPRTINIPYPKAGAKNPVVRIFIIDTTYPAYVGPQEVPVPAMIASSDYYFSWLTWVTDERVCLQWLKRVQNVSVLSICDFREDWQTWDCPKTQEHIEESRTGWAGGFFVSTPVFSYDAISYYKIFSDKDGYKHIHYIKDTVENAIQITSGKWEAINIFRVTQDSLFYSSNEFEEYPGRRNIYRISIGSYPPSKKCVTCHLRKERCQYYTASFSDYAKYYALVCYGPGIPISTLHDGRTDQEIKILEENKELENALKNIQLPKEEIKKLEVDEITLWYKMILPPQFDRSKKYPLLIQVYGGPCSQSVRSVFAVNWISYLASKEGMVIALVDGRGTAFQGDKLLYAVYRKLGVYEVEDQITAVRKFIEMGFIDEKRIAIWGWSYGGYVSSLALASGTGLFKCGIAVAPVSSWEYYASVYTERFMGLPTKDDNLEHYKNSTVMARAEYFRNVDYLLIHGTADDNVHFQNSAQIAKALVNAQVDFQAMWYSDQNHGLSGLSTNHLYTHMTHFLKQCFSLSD


Columns and labels:
Assay in all cases: direct ELISA on coated recombinant ECD (30 ng/well), HRP-conjugated secondary antibody, luminescence
human PD-L1 ECD = molecular target: T3, human PD-L1 ECD (human, UniProt Q9NZQ7 19-238)
T3 construct: extracellular domain; also called recombinant extracellular domain of PD-L1
T3 sequence (Q9NZQ7 19-238): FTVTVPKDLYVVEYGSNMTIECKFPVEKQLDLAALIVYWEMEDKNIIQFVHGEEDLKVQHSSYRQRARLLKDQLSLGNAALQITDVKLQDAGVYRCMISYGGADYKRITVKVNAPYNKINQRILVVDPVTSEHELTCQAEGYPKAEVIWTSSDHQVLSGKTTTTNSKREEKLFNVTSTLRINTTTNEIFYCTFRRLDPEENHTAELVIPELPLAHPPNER
Experimental: (§1) Briefly, recombinant extracellular domain of PDGFRb, FAPα, ULBP1, uPAR, IGF1R, SIRPA, PD-L1, ANTXR1, CD248, or GPC3 (30 ng/well) was coated on white optiplate™-384 well HB plate. After overnight coating, standard direct ELISA assay was performed. Luminescence signal was detected after using secondary antibody with HRP conjugated. Binding activity of each antibody was determined based on dose dependent binding curve.

human CD248 ECD = molecular target: T1, human CD248 ECD
Experimental: as §1

human SIRPA ECD = molecular target: T4, human SIRPA ECD (human, UniProt P78324 31-373)
T4 construct: extracellular domain; also called recombinant extracellular domain of SIRPA
T4 sequence (P78324 31-373): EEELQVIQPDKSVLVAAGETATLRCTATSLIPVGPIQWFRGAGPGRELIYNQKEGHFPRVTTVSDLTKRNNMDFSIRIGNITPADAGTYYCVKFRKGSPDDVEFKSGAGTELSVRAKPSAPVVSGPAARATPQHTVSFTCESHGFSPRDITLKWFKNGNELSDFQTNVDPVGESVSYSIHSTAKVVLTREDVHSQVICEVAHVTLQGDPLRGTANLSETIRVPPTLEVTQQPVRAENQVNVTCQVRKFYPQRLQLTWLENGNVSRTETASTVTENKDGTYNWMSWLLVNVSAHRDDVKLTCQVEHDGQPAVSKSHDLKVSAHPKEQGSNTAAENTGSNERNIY
Experimental: as §1

human FAPa ECD = molecular target: T2, human FAPa ECD
Experimental: as §1

EC50 (read off the curve) (human SIRPA ECD) | Binder | also measured
 | α-PDL1 1 S239D/1332E (antibody, human IgG1, kappa, V domains shown, Humanized, hIgG1 isotype, with S239D/I332E; also called α-PDL1 1 S239D/I332E; exemplary anti-PDL1 antibody (α-PDL1 1)) VH: EVQLVQSGAEVKKPGATVKISCKVSGYTFTSYWMYWVRQARGQRLEWIGRIDPNSGSTKYNEKFKNRFTISRDNSKNTLYLQMNSLRAEDTAVYYCARDYRKGLYAMDYWGQGTTVTVSS VL: AIQLTQSPSSLSASVGDRVTITCKASQDVGTAVAWYLQKPGQSPQLLIYWASTRHTGVPSRFSGSGSGTDFTFTISSLEAEDAATYYCQQYNSYPLTFGQGTKVEIKR | EC50 (read off the curve) (human PD-L1 ECD): ~0.02 µg/mL
 | α-CD248 2 mIgG2a S239D/1332E (antibody, V domains shown, mIgG2a with S239D/I332E; also called α-CD248 2 mIgG2a S239D/I332E; exemplary anti-CD248 antibody (α-CD248 2)) VH: QVQLQESGPGLVRPSQTLSLTCTASGYTFTDYVIHWVKQPPGRGLEWIGYINPYDDDTTYNQKFKGRVTMLVDTSSNTAYLRLSSVTAEDTAVYYCARRGNSYDGYFDYSMDYWGSGTPVTVSS VL: DIQMTQSPSSLSASVGDRVTITCRASQNVGTAVAWLQQTPGKAPKLLIYSASNRYTGVPSRFSGSGSGTDYTFTISSLQPEDIATYYCQQYTNYPMYTFGQGTKVQIKR | EC50 (read off the curve) (human CD248 ECD): ~0.01 µg/mL
~0.3 nM | α-SIRPA 3 S239D/1332E (antibody, human IgG1, kappa, V domains shown, Chimeric: murine variable regions, hIgG1 constant region with S239D/I332E; also called α-SIRPA 3 S239D/I332E; exemplary anti-SIRPA antibody (α-SIRPA 3)) VH: EVQLQQSGAELVKPGASVKLSCTASGFNIKDSYMHWVKQRTEQGLEWIGRIDPEDGETKYAPKFQGKATITADTSSNTAYLQLTSLTSEDTAVYYCARRGFYWGQGTTLTVSS VL: QIVLTQSPAIMSASPGEKVTLTCSASSSVSSSYLYWYQQKPGSSPKLWIYSTSNLASGVPARFSGSGSGTSYSLTISSMEAEDAASYFCYQWSTHPYTFGGGTKLEIKR | 
 | α-FAPa 1 S239D/1332E (antibody, mouse IgG2a, kappa, V domains shown, also called α-FAPα 1 S239D/I332E) VH: QVQLVQSGAEVKKPGASVKVSCKTSRYTFTEYTIHWVRQAPGQRLEWIGGINPNNGIPNYNQKFKGRVTITVDTSASTAYMELSSLRSEDTAVYYCARRRIAYGYDEGHAMDYWGQGTLVTVSS VL: DIVMTQSPDSLAVSLGERATINCKSSQSLLYSRNQKNYLAWYQQKPGQPPKLLIFWASTRESGVPDRFSGSGFGTDFTLTISSLQAEDVAVYYCQQYFSYPLTFGQGTKVEIKR | binding result (human FAPa ECD): binds
~0.3 nM | α-SIRPA 1 S239D/1332E (antibody, human IgG1, kappa, V domains shown, Chimeric: murine variable regions, hIgG1 constant region with S239D/I332E; also called α-SIRPA 1 S239D/I332E; exemplary anti-SIRPA antibody (α-SIRPA 1)) VH: EVQLQQSGAELVKPGASVKLSCTTSGFNFKDMYIHWVKQRPQQGLEWIGRIDPENDDTKYDPKFQDKATITADTSSNTAYLQLSNLPSEDTAVYYCARGNYVHWGQGTLVTVSA VL: DIVLTQSPASLAVSLGQRATISCRASESVQYYGTSLMQWYQQKPGQPPKLLIYAASNVESGVPARFSGSGSGTDFSLNIYPVEEDDIAMYFCQQSRRVWTFGGGTKLEIKR | 
~0.3 nM | α-SIRPA 2 S239D/1332E (antibody, human IgG1, kappa, V domains shown, Chimeric: murine variable regions, hIgG1 constant region with S239D/I332E; also called α-SIRPA 2 S239D/I332E; exemplary anti-SIRPA antibody (α-SIRPA 2)) VH: EVQLQQSGAELVKPGASVKVSCTGSGFNFKDMYLHWVKQRPEQGLEWIGRIDPENDSTKYDPKFQDKATLTADTASNTAYLQISSLTSEDTAVYYCARGNYVHWGQGTLVTVSA VL: DIVLTQSPASLAVSLGQRATISCRASESVQYYGTSLMQWYQQKPGQPPKLLIYAASNVGSGVPARFSGSGSGTDFSLNIHPVEEDDIAMYFCQQTRRVWTFGGGTKLEIKR | 
